Numbering of substitutions follows the chain as printed.

The target of experiment [1] is T1, 血浆激肽释放酶(plasma kallikrein,PK) (human, UniProt P03952 20-638). The experiment is described as follows: cell-based or functional assay.
For experiment [2], the target named is T1, 血浆激肽释放酶(plasma kallikrein,PK). The experiment is described as follows: cell-based or functional assay. This is another data set of the same source.

T1 sequence (P03952 20-638 limits assumed): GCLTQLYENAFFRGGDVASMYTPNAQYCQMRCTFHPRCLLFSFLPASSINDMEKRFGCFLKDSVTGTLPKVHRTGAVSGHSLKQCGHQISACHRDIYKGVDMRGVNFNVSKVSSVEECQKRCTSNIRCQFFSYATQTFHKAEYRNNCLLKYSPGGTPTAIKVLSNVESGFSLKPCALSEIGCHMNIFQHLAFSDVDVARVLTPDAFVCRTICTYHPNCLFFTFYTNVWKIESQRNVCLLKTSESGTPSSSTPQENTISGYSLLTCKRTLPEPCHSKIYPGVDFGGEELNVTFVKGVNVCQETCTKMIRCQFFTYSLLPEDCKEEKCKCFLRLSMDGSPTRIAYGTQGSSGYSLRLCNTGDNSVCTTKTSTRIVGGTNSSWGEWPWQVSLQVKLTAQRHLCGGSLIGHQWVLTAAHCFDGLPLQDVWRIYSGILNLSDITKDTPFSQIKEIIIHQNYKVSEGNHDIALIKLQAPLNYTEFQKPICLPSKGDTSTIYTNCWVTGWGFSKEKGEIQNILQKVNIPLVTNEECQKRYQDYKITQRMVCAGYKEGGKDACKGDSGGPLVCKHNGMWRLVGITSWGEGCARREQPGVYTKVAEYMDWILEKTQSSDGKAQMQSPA

B1: KH18 (antibody, human IgG4 S228P, kappa, V domains shown)
VH: QVQLLESGAELVRPGSSVKISCKASGYAFTNYWMHWVKQRPGQGLEWIGAIYPGDSDTSYNQKFKGKATLTADESSSTAYMQLSSLRSEDSAVYSCARERAYYRYDEDFDYWGQGTTVTVSS
VL: DIQMTQSPSSLSASVGDRVTITCSATSIINSNYFHWYQQKPGKAPKLLIYRTSNLASGVPSRFSGSGSGTDFTFTISSLQPEDIATYYCQQGSSLPRTFGGGTKLEIKR
Take B1: the “IC50(nM), PK activity in human plasma activated with Factor XIIa (H-Pro-Phe-Arg-AMC)” value (“IC50(nM), PK activity” below) in experiment [1] amounted to 0.419 nM.

B2: KH16 (antibody, human IgG4 S228P, kappa, V domains shown)
VH: EVQLVQSGAEVKKPGATVKISCKVSGYTFTNYWMHWVQQAPGKGLEWMGAIYPGDSDTSYNQKFKGRVTITADTSTDTAYMELSSLRSEDTAVYYCTRERAYYRYDEDFDYWGQGTLVTVSS
VL: B1 VL
As to B2, the “IC50(nM), PK enzyme activity on H-Pro-Phe-Arg-AMC (fluorescence)” value (shortened to “IC50(nM), PK enzyme activity”) in experiment [2] was found to be 0.23 nM.

B3: KH13 (antibody, human IgG1, kappa, V domains shown)
VH: QVQLVQSGAEVKKPGASVKVSCKASGYTFTNYWMHWVRQAPGQGLEWMGAIYPGDSDTSYNQKFKGRVTMTRDTSTSTVYMELSSLRSEDTAVYYCARERAYYRYDEDFDYWGQGTLVTVSS
VL: B1 VL
For the molecule B3, the “IC50(nM), PK enzyme activity” value in experiment [2] came out at 0.221 nM.

B4: KH21 (antibody, V domains shown)
VH: EVQLQQSGAELVKPGASVKLSCTGSGFNIKDIYMFWVKQRPEQGLEWIGRIDPENGNIKYDPKFQGKATITAETSSNTVYLQLNSLTSEDTAVYYCSRGGGLFAYWGQGTLVTVSA
VL: DIQMTQSPSSLSASLGGKVTITCKASQDINKYIAWYQHKPGKGPRLLIHYTSTLQPGIPSRFSGSGSGSDYSFSISTLEPEDIATYYCLQYDDLWTFGGGTKLEIK
For the molecule B4, the “IC50(nM), PK activity” value in experiment [1] stood at 1.29 nM. Also, the “IC50(nM), PK enzyme activity” value in experiment [2] worked out at 0.82 nM.

B5: KH11 (antibody, human IgG4 S228P, kappa)
heavy: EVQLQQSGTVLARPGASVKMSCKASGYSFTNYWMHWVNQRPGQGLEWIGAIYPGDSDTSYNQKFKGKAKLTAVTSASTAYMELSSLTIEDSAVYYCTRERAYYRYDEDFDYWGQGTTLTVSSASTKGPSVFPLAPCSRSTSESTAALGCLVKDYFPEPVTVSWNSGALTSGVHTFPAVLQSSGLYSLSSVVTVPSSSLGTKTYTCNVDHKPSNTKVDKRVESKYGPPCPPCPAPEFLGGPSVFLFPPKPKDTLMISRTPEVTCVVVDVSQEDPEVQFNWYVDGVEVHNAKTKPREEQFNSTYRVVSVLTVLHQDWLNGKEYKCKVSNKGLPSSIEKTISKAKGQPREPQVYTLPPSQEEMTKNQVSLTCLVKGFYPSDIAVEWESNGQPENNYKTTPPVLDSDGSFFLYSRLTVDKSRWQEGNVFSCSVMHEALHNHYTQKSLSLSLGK
light: EIVLTQSPTTMAASPGEKITITCSATSIINSNYFHWYQQKPGFSPKLLIYRTSNLASGVPARFSGSGSGTSYSLTIGTMEAEDVATYYCQQGSSLPRTFGGGTKLEIKRTVAAPSVFIFPPSDEQLKSGTASVVCLLNNFYPREAKVQWKVDNALQSGNSQESVTEQDSKDSTYSLSSTLTLSKADYEKHKVYACEVTHQGLSSPVTKSFNRGEC
For the molecule B5, the “IC50(nM), PK activity” value in experiment [1] is 0.103 nM. For the same molecule, the “IC50(nM), PK enzyme activity” value in experiment [2] is 0.188 nM.

B6: KH10 (antibody, human IgG1, kappa)
heavy: not shown
light: B5 light
For B6, the “IC50(nM), PK enzyme activity” value in experiment [2] came out at 0.227 nM.

B7: KH20 (antibody, V domains shown)
VH: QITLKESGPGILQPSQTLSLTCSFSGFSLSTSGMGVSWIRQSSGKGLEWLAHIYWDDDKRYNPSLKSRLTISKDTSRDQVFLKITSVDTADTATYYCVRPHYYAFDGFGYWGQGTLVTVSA
VL: DIKMTQSPSSMSASPGERVTITCKASQDINSYLSWFQQKSGKFPKTLIYRANRLVDGVASRFSGSGSGQDYSLTISSLDYEDMGIYYCVQYDEFPLTFGAGTKLELK
B7: the “IC50(nM), PK activity” value in experiment [1] was 1.09 nM. Also, in experiment [2], the “IC50(nM), PK enzyme activity” value is 1.1 nM.

B8: KH12 (antibody, human IgG1, kappa, V domains shown)
VH: B3 VH
VL: EIVMTQSPPTLSLSPGERVTLSCSATSIINSNYFHWYQQKPGQAPRLLIYRTSNLASGIPARFSGSGSGTDFTLTISSLQPEDFAVYYCQQGSSLPRTFGGGTKLEIKR
In the case of B8, the “IC50(nM), PK enzyme activity” value in experiment [2] amounted to 0.174 nM.

B9: KH15 (antibody, human IgG4 S228P, kappa, V domains shown)
VH: B2 VH
VL: B8 VL
For the molecule B9, in experiment [2], the “IC50(nM), PK enzyme activity” value turned out to be 0.224 nM.

B10: KH14 (antibody, human IgG1, kappa, V domains shown)
VH: B3 VH
VL: EIVLTQSPAIMSASPGERVTMTCSATSIINSNYFHWYQQKPGTSPRRWIYRTSNLASGVPARFSGSGSGTDYSLTISSMEPEDAATYYCQQGSSLPRTFGGGTKLEIKR
B10: in experiment [2], the “IC50(nM), PK enzyme activity” value is 0.398 nM.

B11: KH19 (antibody, V domains shown)
VH: EVQLQQSGAEVVRPGASVKLSCKPSGFNIKDYYMFWLRQRPDQGLEWIGRIDPENGNTVYDPRFQDRASITAVTSSNTAFLQVNSLTSEDTAVYYCARAGSIPSYWGQGTLVTVSA
VL: DIQMTQSPSSLSASLGDKITITCKASQDINKYIAWYQHKPGKGPRLLIHYTSSLHQDIPSRFSGSGSGRDYSFSISNLEPEDFAIYYCLQYDDLWTFGGGTKVEIK
Take B11: the “IC50(nM), PK activity” value in experiment [1] was determined as 0.93 nM. Besides, in experiment [2], the “IC50(nM), PK enzyme activity” value is 0.87 nM.

B12: KH09 (antibody, human IgG4 S228P, kappa, V domains shown)
VH: EVQLVESGGALVKPGGSLRLSCAASGFNIKDTYIFWVRQMPRKGLEWIGRIDPENDNTKYDPKIQGKATITADTSTDTAYMELSSLTSEDTAVYYCAKGGGLFAYWGQGTLVTVSS
VL: DIQMTQSPSAMSASVGDRVTITCEASHDINNYIAWYQQKPGKAPKLLIYYTSTLQSGVPSRFSGSGSGTDFTFTISSLQPEDIATYYCLQYDNLFTFGQGTKVEIKR
Turning to B12, in experiment [1], the “IC50(nM), PK activity” value was 0.764 nM.

B13: KH01 (antibody, human IgG4 S228P, kappa, V domains shown)
VH: EVQLHQSGAELVKPGASVRLSCTASGFNIKDTYIFWVKQRPEQGLEWIGRIDPENDNTKFDPKIQGKATLTADTSSNTAYLQLGSLTSEDSAIYYCAKGGGLFAYWGQGTLVSVSA
VL: DIQMTQSPSSLSASLGGKVTITCKASHDINKYIAWYQHKPGSGPRLLIHFTSTLQSDIPSRFSGSGSGRDYSFSISNLEPEDIATYYCLQYDNLFTFGGGTKLEIKR
In the case of B13, the “IC50(nM), PK activity” value in experiment [1] is 0.753 nM. The “IC50(nM), PK enzyme activity” value in experiment [2] is 0.297 nM.

B14: KH02 (antibody, human IgG4 S228P, kappa, V domains shown)
VH: B13 VH with H5Q, E42K, F60Y, G84S
VL: B13 VL with A13T, K24E, K31N, S42K, F50Y, D57G, R69K
Consider B14, for which the “IC50(nM), PK activity” value in experiment [1] was 0.52 nM. The “IC50(nM), PK enzyme activity” value in experiment [2] was 0.235 nM.

B15: KH05 (antibody, human IgG4 S228P, kappa, V domains shown)
VH: B13 VH with H5Q, E42K, F60Y, G84S
VL: B12 VL with A10S, M11L, K42Q, A43P, D70E, F73L, S77N, I83F
For the molecule B15, in experiment [1], the “IC50(nM), PK activity” value came to 0.921 nM.

B16: KH07 (antibody, human IgG4 S228P, kappa, V domains shown)
VH: B13 VH with H5Q, E42K, F60Y, G84S
VL: B12 VL with K42Q, A43P
As for B16, in experiment [1], the “IC50(nM), PK activity” value came to 0.863 nM.

B17: KH03 (antibody, human IgG4 S228P, kappa)
heavy: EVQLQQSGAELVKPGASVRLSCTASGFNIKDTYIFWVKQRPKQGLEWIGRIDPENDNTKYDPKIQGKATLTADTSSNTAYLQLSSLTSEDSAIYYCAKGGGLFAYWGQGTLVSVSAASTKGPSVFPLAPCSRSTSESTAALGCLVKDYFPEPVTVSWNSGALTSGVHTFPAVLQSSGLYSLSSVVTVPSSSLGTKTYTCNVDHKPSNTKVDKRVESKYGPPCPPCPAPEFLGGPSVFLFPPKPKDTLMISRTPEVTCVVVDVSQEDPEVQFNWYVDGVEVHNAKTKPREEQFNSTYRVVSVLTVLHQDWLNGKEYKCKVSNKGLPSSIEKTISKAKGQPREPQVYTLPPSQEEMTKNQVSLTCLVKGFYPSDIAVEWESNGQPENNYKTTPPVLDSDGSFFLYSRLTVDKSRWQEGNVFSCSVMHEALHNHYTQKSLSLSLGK
light: DIQMTQSPSAMSASVGDRVTITCEASHDINNYIAWYQQKPGKAPKLLIYYTSTLQSGVPSRFSGSGSGTEFTLTISNLQPEDFATYYCLQYDNLFTFGQGTKVEIKRTVAAPSVFIFPPSDEQLKSGTASVVCLLNNFYPREAKVQWKVDNALQSGNSQESVTEQDSKDSTYSLSSTLTLSKADYEKHKVYACEVTHQGLSSPVTKSFNRGEC
Regarding B17, the “IC50(nM), PK activity” value in experiment [1] is 0.949 nM.

B18: KH04 (antibody, human IgG4 S228P, kappa)
heavy: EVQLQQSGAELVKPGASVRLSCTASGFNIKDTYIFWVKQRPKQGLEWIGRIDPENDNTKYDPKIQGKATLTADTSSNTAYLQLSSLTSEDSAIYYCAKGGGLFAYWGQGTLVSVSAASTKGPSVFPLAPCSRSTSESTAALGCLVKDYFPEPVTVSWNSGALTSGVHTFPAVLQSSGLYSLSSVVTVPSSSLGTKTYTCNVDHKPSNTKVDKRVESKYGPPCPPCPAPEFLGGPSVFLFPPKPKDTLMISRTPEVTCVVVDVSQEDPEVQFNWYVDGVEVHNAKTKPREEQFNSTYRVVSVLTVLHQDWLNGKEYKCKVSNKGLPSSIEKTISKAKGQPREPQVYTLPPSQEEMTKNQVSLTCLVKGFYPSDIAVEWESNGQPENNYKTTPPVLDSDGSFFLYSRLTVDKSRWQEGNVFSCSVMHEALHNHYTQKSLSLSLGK
light: B17 light with A10S, M11L
Take B18: the “IC50(nM), PK activity” value in experiment [1] stood at 0.987 nM.

Values taken from patent CN114790245A (CHENGDU KANGHONG BIOLOGICAL TECH CO LTD, dated 2022).
